Test results from US20160009804A1.

Biological target: vascular endothelial growth factor receptor-1 (VEGFR-1) (human) (UniProt P17948)
Experiment: cell-based or functional assay

UniProt P17948, sequence (P17948 27-1338): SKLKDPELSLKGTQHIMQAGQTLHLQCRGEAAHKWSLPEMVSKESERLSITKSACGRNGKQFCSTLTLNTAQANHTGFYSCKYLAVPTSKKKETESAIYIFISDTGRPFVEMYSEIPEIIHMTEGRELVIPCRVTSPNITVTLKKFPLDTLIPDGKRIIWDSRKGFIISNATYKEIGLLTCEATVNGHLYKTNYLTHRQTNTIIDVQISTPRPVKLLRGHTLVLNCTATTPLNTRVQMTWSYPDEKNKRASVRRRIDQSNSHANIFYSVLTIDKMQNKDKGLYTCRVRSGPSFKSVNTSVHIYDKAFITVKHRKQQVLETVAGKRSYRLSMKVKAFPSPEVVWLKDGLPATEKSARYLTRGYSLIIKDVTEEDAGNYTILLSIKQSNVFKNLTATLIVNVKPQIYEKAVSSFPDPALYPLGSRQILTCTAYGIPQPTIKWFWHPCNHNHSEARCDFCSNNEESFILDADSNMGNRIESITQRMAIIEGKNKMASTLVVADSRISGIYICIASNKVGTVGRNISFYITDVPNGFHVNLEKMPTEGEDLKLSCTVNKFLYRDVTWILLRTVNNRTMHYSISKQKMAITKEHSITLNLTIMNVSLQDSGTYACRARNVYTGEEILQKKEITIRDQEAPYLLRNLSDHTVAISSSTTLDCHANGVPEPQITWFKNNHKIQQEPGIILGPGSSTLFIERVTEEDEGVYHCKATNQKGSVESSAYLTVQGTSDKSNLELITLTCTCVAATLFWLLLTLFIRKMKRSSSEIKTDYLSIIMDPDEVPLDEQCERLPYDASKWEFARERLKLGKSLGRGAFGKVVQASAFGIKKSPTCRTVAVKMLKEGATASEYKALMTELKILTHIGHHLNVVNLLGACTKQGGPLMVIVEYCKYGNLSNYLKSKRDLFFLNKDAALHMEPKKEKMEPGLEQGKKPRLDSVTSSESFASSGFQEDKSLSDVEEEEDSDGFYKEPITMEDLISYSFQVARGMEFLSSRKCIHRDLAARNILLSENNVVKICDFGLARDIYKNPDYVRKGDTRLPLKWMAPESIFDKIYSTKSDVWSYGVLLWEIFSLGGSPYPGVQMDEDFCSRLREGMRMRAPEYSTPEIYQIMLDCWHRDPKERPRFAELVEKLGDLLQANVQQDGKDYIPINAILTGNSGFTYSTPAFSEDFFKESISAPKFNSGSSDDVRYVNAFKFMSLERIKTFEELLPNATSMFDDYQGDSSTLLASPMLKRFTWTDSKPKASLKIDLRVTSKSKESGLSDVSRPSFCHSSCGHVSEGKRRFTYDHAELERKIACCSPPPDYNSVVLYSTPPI

| Substance | VEGF-induced CD144 expression (% of cells), isotype control mAb-treated human melanoma cells [%] | VEGF-induced tube formation, average tube length, isotype control mAb-treated [µm] | VEGF-induced tube formation, numbers of tubes formed/microscopy field, isotype control mAb-treated (tubes/microscopy field) | VEGF-induced CD144 expression (% of cells), untreated human melanoma cells [%] | VEGF-induced tube formation, average tube length, untreated [µm] | VEGF-induced tube formation, numbers of tubes formed/microscopy field, untreated (tubes/microscopy field) |
| --- | --- | --- | --- | --- | --- | --- |
| isotype control mAb (antibody) | 57 | 86.5 | 76.7 | – | – | – |
| vascular endothelial growth factor (VEGF) (from UniProt P15692 27-191) (ligand) | – | – | – | 64 | 92.1 | 99 |
